# Experimental data: IntAct's records for PubMed 31515488
# B1: TBC1 domain family member 7 (Homo sapiens), Q9P0N9 (parent)
# chain: MTEDSQRNFRSVYYEKVGFRGVEEKKSLEILLKDDRLDTEKLCTFSQRFPLPSMYRALVWKVLLGILPPHHESHAKVMMYRKEQYLDVLHALKVVRFVSDATPQAEVYLRMYQLESGKLPRSPSFPLEPDDEVFLAIAKAMEEMVEDSVDCYWITRRFVNQLNTKYRDSLPQLPKAFEQYLNLEDGRLLTHLRMCSAAPKLPYDLWFKRCFAGCLPESSLQRVWDKVVSGSCKILVFVAVEILLTFKIKVMALNSAEKITKFLENIPQDSSDAIVSKAIDLWHKHCGTPVHSS
# B2: Segment polarity protein dishevelled homolog DVL-2 (Homo sapiens), O14641 (parent)
# chain: MAGSSTGGGGVGETKVIYHLDEEETPYLVKIPVPAERITLGDFKSVLQRPAGAKYFFKSMDQDFGVVKEEISDDNARLPCFNGRVVSWLVSSDNPQPEMAPPVHEPRAELAPPAPPLPPLPPERTSGIGDSRPPSFHPNVSSSHENLEPETETESVVSLRRERPRRRDSSEHGAGGHRTGGPSRLERHLAGYESSSTLMTSELESTSLGDSDEEDTMSRFSSSTEQSSASRLLKRHRRRRKQRPPRLERTSSFSSVTDSTMSLNIITVTLNMEKYNFLGISIVGQSNERGDGGIYIGSIMKGGAVAADGRIEPGDMLLQVNDMNFENMSNDDAVRVLRDIVHKPGPIVLTVAKCWDPSPQAYFTLPRNEPIQPIDPAAWVSHSAALTGTFPAYPGSSSMSTITSGSSLPDGCEGRGLSVHTDMASVTKAMAAPESGLEVRDRMWLKITIPNAFLGSDVVDWLYHHVEGFPERREARKYASGLLKAGLIRHTVNKITFSEQCYYVFGDLSGGCESYLVNLSLNDNDGSSGASDQDTLAPLPGATPWPLLPTFSYQYPAPHPYSPQPPPYHELSSYTYGGGSASSQHSEGSRSSGSTRSDGGAGRTGRPEERAPESKSGSGSESEPSSRGGSLRRGGEASGTSDGGPPPSRGSTGGAPNLRAHPGLHPYGPPPGMALPYNPMMVVMMPPPPPPVPPAVQPPGAPPVRDLGSVPPELTASRQSFHMAMGNPSEFFVDVM
# B3: Uncharacterized protein C3orf62 (Homo sapiens), Q6ZUJ4 (parent)
# chain: MHYIKTWSLLGEMSEKLRRCRKELTAAIDRAFEGVSYSQECTGQQRLELSAAPLSFSLPVHRLLCRRHPLAACSSAAPFAAVPCAPENENPAFATNHAPVNAKPHALCPERKPLTSKENVLMHSSILAPERESWRTAGEGENWRKENLRKDMERDLKADSNMPLNNSSQEVTKDLLDMIDHTSIRTIEELAGKIEFENELNHMCGHCQDSPFKEEAWALLMDKSPQKATDADPGSLKQAFDDHNIVETVLDLEEDYNVMTSFKYQIE
# B4: Scaffold protein ILK (Homo sapiens), Q13418 (parent)
# chain: MDDIFTQCREGNAVAVRLWLDNTENDLNQGDDHGFSPLHWACREGRSAVVEMLIMRGARINVMNRGDDTPLHLAASHGHRDIVQKLLQYKADINAVNEHGNVPLHYACFWGQDQVAEDLVANGALVSICNKYGEMPVDKAKAPLRELLRERAEKMGQNLNRIPYKDTFWKGTTRTRPRNGTLNKHSGIDFKQLNFLTKLNENHSGELWKGRWQGNDIVVKVLKVRDWSTRKSRDFNEECPRLRIFSHPNVLPVLGACQSPPAPHPTLITHWMPYGSLYNVLHEGTNFVVDQSQAVKFALDMARGMAFLHTLEPLIPRHALNSRSVMIDEDMTARISMADVKFSFQCPGRMYAPAWVAPEALQKKPEDTNRRSADMWSFAVLLWELVTREVPFADLSNMEIGMKVALEGLRPTIPPGISPHVCKLMKICMNEDPAKRPKFDMIVPILEKMQDK
# partner: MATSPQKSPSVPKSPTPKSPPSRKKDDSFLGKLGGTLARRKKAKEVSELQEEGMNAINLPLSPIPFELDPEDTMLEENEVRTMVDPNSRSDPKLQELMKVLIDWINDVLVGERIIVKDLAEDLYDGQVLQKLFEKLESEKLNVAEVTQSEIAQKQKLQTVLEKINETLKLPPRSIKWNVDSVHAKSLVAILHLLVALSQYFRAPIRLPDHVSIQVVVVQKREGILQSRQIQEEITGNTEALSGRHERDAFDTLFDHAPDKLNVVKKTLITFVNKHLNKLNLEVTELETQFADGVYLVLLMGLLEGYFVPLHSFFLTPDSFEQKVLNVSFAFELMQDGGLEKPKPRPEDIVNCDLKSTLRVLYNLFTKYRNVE
# B5: Centrosomal protein POC5 (Homo sapiens), Q8NA72 (parent)
# chain: MSSDEEKYSLPVVQNDSSRGSSVSSNLQEEYEELLHYAIVTPNIEPCASQSSHPKGELVPDVRISTIHDILHSQGNNSEVRETAIEVGKGCDFHISSHSKTDESSPVLSPRKPSHPVMDFFSSHLLADSSSPATNSSHTDAHEILVSDFLVSDENLQKMENVLDLWSSGLKTNIISELSKWRLNFIDWHRMEMRKEKEKHAAHLKQLCNQINELKELQKTFEISIGRKDEVISSLSHAIGKQKEKIELMRTFFHWRIGHVRARQDVYEGKLADQYYQRTLLKKVWKVWRSVVQKQWKDVVERACQARAEEVCIQISNDYEAKVAMLSGALENAKAEIQRMQHEKEHFEDSMKKAFMRGVCALNLEAMTIFQNRNDAGIDSTNNKKEEYGPGVQGKEHSAHLDPSAPPMPLPVTSPLLPSPPAAVGGASATAVPSAASMTSTRAASASSVHVPVSALGAGSAATAASEEMYVPRVVTSAQQKAGRTITARITGRCDFASKNRISSSLAIMGVSPPMSSVVVEKHHPVTVQTIPQATAAKYPRTIHPESSTSASRSLGTRSAHTQSLTSVHSIKVVD
# partner: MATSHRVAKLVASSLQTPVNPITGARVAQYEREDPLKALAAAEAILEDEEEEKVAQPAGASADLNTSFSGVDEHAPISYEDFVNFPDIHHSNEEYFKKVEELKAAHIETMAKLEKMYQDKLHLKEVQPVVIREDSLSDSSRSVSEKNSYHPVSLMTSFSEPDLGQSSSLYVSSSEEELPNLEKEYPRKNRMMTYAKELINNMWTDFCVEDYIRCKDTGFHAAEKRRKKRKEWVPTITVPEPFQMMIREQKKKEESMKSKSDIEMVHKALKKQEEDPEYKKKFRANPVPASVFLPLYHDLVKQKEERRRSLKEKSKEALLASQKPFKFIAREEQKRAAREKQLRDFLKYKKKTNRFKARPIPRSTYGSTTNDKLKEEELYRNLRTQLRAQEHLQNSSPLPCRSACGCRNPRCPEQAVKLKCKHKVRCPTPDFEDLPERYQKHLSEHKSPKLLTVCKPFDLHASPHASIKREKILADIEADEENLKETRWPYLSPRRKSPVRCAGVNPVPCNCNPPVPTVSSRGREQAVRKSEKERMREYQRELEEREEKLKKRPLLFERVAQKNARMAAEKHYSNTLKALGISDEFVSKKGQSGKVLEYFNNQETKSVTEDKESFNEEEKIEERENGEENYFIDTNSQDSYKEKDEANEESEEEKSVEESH
# Variants of: B1
# Conditions: with hook1_human HOOK1, Q9UJC3
# Chain of hook1_human HOOK1, Q9UJC3 (Q9UJC3 whole entry): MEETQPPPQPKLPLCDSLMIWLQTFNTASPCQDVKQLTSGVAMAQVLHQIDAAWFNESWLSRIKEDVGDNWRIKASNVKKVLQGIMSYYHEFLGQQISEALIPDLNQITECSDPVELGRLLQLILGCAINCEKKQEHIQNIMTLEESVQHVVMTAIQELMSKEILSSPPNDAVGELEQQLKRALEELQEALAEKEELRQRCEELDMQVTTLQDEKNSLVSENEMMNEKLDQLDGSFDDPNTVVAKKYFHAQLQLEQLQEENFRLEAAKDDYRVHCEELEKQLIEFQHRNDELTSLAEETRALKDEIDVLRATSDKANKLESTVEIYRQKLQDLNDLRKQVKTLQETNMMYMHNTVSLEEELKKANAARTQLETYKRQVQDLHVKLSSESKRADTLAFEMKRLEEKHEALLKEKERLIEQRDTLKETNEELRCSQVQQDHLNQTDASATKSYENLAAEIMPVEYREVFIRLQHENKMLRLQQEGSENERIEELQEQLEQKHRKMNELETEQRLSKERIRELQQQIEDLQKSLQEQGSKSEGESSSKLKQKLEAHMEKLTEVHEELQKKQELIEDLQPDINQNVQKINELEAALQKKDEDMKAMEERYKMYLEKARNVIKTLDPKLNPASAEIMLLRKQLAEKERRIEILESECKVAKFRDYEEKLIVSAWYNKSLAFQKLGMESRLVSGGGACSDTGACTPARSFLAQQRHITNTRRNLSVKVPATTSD
row,effect of a mutation on the interaction,Variant
1,disrupting interaction strength,L67W

# Variants of: B1
# Conditions: with KRT19, P08727
# Chain of KRT19, P08727 (P08727 whole entry): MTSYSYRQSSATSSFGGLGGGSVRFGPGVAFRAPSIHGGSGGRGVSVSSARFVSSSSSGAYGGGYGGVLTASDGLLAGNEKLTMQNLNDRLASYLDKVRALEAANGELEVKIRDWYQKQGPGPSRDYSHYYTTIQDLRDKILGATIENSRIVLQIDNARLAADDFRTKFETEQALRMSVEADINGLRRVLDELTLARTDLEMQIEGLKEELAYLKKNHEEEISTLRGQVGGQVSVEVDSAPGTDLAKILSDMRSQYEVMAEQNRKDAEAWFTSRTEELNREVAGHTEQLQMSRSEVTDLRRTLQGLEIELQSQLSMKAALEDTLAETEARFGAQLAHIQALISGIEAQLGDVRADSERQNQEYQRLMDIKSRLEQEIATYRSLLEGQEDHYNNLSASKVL
row,effect of a mutation on the interaction,Variant
1,disrupting interaction strength,L67W

# Variants of: B2
# Conditions: with thap1_human THAP1, Q9NVV9
# Chain of thap1_human THAP1, Q9NVV9 (Q9NVV9 whole entry): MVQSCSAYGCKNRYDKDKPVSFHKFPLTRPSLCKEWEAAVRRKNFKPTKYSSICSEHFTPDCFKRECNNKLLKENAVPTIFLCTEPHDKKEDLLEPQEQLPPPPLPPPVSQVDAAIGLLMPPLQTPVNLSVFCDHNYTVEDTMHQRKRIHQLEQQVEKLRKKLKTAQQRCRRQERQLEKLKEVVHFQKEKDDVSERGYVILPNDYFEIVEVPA
row,effect of a mutation on the interaction,Variant
1,with no effect,T535I
2,with no effect,A53V

# Variants of: B2
# Conditions: with kc1e_human CSNK1E
row,effect of a mutation on the interaction,Variant
1,with no effect,T535I
2,with no effect,A53V

# Variants of: B2
# Conditions: with traf2_human TRAF2, Q12933
# Chain of traf2_human TRAF2, Q12933 (Q12933 whole entry): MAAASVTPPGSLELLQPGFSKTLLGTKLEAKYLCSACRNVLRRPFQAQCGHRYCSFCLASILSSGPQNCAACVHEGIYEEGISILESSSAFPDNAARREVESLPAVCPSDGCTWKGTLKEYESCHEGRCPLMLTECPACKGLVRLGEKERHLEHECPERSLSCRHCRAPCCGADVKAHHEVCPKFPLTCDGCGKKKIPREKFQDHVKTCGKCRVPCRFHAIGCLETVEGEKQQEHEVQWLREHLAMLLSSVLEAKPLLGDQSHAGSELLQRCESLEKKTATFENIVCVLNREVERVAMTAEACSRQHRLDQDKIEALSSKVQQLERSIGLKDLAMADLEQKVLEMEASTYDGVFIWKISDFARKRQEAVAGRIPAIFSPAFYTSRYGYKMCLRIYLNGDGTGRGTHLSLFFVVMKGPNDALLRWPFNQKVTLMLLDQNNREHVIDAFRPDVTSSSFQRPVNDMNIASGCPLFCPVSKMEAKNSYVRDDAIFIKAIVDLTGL
row,effect of a mutation on the interaction,Variant
1,with no effect,R415Q

# Variants of: B2
# Conditions: with ap2m1_human AP2M1, Q96CW1
# Chain of ap2m1_human AP2M1, Q96CW1 (Q96CW1 whole entry): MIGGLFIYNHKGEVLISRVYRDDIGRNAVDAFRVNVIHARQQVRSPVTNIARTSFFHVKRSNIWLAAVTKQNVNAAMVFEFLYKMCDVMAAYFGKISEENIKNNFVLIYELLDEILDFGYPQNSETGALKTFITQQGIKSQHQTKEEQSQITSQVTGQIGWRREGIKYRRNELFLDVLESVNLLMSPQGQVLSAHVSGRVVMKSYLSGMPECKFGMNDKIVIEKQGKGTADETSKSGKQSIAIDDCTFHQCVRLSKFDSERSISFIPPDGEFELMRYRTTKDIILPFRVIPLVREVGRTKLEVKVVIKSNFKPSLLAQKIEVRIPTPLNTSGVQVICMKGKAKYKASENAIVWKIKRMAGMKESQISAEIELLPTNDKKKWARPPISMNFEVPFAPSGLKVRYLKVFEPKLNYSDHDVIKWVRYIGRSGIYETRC
row,effect of a mutation on the interaction,Variant
1,with no effect,R415Q

# Variants of: B3
# Conditions: with mr1l1_human MRFAP1L1, Q96HT8
# Chain of mr1l1_human MRFAP1L1, Q96HT8 (Q96HT8 whole entry): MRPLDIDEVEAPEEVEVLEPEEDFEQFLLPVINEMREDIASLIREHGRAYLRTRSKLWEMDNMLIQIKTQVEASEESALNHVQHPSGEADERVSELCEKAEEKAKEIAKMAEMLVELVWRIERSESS
row,effect of a mutation on the interaction,Variant
1,with no effect,M203I
2,with no effect,V60M
3,with no effect,N142D
4,with no effect,E110K

# Variants of: B4
# Conditions: with parva_human PARVA
row,Variant,effect of a mutation on the interaction
1,R46H,with no effect
2,K223N,disrupting interaction strength

# The remaining lines, values ahead:
row,effect of a mutation on the interaction,Variant
1,disrupting interaction strength,R349H
2,with no effect,M425I
3,with no effect,A262V
4,with no effect,L314H
5,with no effect,L311I
6,with no effect,Q362H
7,disrupting interaction strength,Y278H
8,with no effect,V340G

# Variants of: B5
# Conditions: with FAM161A
row,effect of a mutation on the interaction,Variant
1,with no effect,H36R
2,with no effect,I175M
